The nature of the data set: soluble on expression in E. coli; label from the status in PepcDB or PDB records.
For “AHHHHHHGSAQLAGQPILILPEGTQRYVGRDAQRMNILAARIVAETIRTTLGPKGMDKMLVDSLGDIVITNDGATILDEMDIQHPAAKMMVEVAKTQDKEAGDGTTTAVVIAGELLRKAEELLDQNIHPSIIIKGYTLAAQKAQEILENIAKEVKPDDEEILLKAAMTSITGKAAEEEREYLAKLAVEAVKLVAEKEDGKYKVDIDNIKLEKKEGGSVRDTQLIRGVVIDKEVVHPGMPKRVEKAKIALINDALEVKETETDAEIRITSPEQLQAFLEQEERMLREMVEKIKEVGANVVFVQKGIDDLAQHYLAKYGIMAVRRVKKSDMEKLAKATGAKIVTNIRDLTPEDLGYAELVEERKVAGESMIFVEGCQNPKAVTILIRGGTEHVVDEVERALEDAIKVVKDILEDGKILAGGGAPEIELAIRLDEYAKEVGGKEQLAIEAFAEALKVIPRTLAENAGLDPIETLVKVIAAHKEKGPTIGVDVYEGEPADMLERGVIEPLRVKKQAIKSASEAAIMILRIDDVIAASKLEKEKEKEGEKGGGSEDFSSDLD”, the “soluble on expression in E. coli” value was “not soluble”.

Regarding “MGSDKIHHHHHHMNPLDLIAKRAYPYETEKRDKTYLALNENPFPFPEDLVDEVFRRLNSDALRIYYDSPDEELIEKILSYLDTDFLSKNNVSVGNGADEIIYVMMLMFDRSVFFPPTYSCYRIFAKAVGAKFLEVPLTKDLRIPEVNVGEGDVVFIPNPNNPTGHVFEREEIERILKTGAFVALDEAYYEFHGESYVDFLKKYENLAVIRTFSKAFSLAAQRVGYVVASEKFIDAYNRVRLPFNVSYVSQMFAKVALDHREIFEERTKFIVEERERMKSALREMGYRITDSRGNFVFVFMEKEEKERLLEHLRTKNVAVRSFREGVRITIGKREENDMILRELEVFK”, the “soluble on expression in E. coli” value is given as “soluble”.

Turning to “MGFGDLKSPAGLQVLNDYLADKSYIEGYVPSQADVAVFEAVSSPPPADLCHALRWYNHIKSYEKEKASLPGVKKALGKYGPADVEDTTGSGATDSKDDDDIDLFGSDDEEESEEAKRLREERLAQYESKKAKKPALVAKSSILLDVKPWDDETDMAKLEECVRSIQADGLVWGSSKLVPVGYGIKKLQIQCVVEDDKVGTDMLEEQITAFEDYVQSMDVAAFNKI”, the “soluble on expression in E. coli” value is “soluble”.

With “GPGSMEFVAEAHGYLITGLALDSQGDLFAICSCSGELLRLNKEENTLVSIMATEASPYNIAIEPNSGSVFITDRSENAILKLEDAATVRAEQELREGKDQESQAAYTTVQYLNAFEGRSFLGPTAIAFSPSGELFFTDAGAEGDSSFSDPVGAVYRTTMNHEHLVPICTRGLIRPSAIAVAPDNSVYVCEQGTNRVLRFVQRSTFYVGNVFAQLQGGMGPRAIAVSPRDGSVFVAQYDISAVEAPTEEGESEKGNEDAGEGEGGDDGKVQNQSALESAGEGGIITVLGRDGDVRGIVRTMRPCITAIALDASGETLYVMEGDEANGSSKLYKLQVLPLDDQQCGGQAE”, the “soluble on expression in E. coli” value is on record as “not soluble”.

As to “MKAIILGIQNILEVLLEDIGILKMESIFLHTNITNIPHSVLYVSLSYYIINPCTSASSNLDDSFS”, the “soluble on expression in E. coli” value was “soluble”.

For the sequence “MARLTAYERRKFRVRNRIKRTGRLRLSVFRSLKHIYAQIIDDEKGVTLVSASSLALKLKGNKTEVARQVGRALAEKALALGIKQVAFDRGPYKYHGRVKALAEGAREGGLEF”, the “soluble on expression in E. coli” value was “soluble”.

For “MAHHHHHHMKTLKEALTNVLSSLNIAEKKEILNVLYHILQKIIENPSRAKFRSLKKDNKTFVNKLLQFKESDELLRSLGFEEETEIWFFPVKNDHKLSSNLTEIRAFIKEHVNTIYNNQDSIFETGTASSSAHLPTDEKNVTENTSNLGDTCNNSEGLTLGGLSKRRLEKERLELLSQKENTIKLLQEHADKWIIQITGAENTLYSNETFQMQFKFTEKYPIESPEVIFLGQPPIHPHIYSNGHICLSILYDHWSPVLSVNSICLSIISMLSSCKKKRKPLDDILYCSTGPRISPKNMKWMFHDDKV”, the “soluble on expression in E. coli” value is reported as “not soluble”.

In the case of “MGSDKIHHHHHHMQAEKLMQVKDAVLKLRQQLRAGQIYQSLPSRMATLIKQLPSTVTTTVTIPSDEEVLPLIATLHEQLKKGTLTAMSDDQIKLLMAHVGSLNPLVRDQGVYYLLNEALQQQVLTPEQLGDIFDQLIQDQMLFAHIDEPQNDAIYQRSFAILLLSVLLYADHAGLKFMTPARLDLVVEQMTVYILLEKDTRGFVGTTGWAHAYTHIGNILDELADESQLARADKLLLLAALIARYQKLTTPLIFGEPERLSTYLTLITNKHELYCDYLLTAMKDWHQQLMMHTRPASEAEWTQIFNRNRLLEALALHDDLPTAVVDYLDDELEFLG”, the “soluble on expression in E. coli” value is “not soluble”.

For the sequence “MHHHHHHSSGVDLGTENLYFQSNAMTAPSQVLKIRRPDDWHVHLRDGDMLKTVVPYTSEIYGRAIVMPNLASPITTVDAAIAYRQRILDAVPAGHDFTPLMTCYLTDSLDADELERGFHEGVFTAAKLYPANATTNSSHGVTSVDAIMPVLERMEKLGIPLLVHGEVTHADVDIFDREARFIDTVMEPLRQRLTALKVVFEHITTKDAAQYVRDGNDYLAATITPQHLMFNRNDMLVGGIRPHLYCLPILKRNIHQQALRELVASGFTRAFLGTDSAPHSRHRKETSCGCAGCFNAPSALGSYAAVFEEMNALAHFEAFCSLNGPQFYGLPMNTGWVELVRDEQQIPGNIALADDSLVPFLAGETVRWSVKK”, the “soluble on expression in E. coli” value was “soluble”.

Regarding “GSMAISDPPNSSSVPLEGNGTILVKGNVTIIVEGNADITVKGDATTLVEGNQTNTVNGNLSWKVAGTVDWDVGGDWTEKMASMSSISSGQYTIDGSRIDIGSVEGYIPEAPRDGQAYVRKDGEWVFLSTFLVEHHHHHH”, the “soluble on expression in E. coli” value is given as “soluble”.

Take “MRHSLWLLLAAILSLPAQAGTECRDIHDRDLRRMCNALERGDSGDCGDIDSRDMRRYCGALLAPGQRYDCDDIRDGDTRRQCRAIVRGDRKRCDDIDSRDMRRQCRAVVSRAPWQCDGIDDRDMRRICRVILSR”: the “soluble on expression in E. coli” value was “soluble”.

For “MAHHHHHHMWRQLMCSYSSKEKLGSKIYTQKKITKREKLLGIVKPFVDENCDSAEPYVIAYYLNNPINLATLKSAYEKVGSQVLYKDPYLYVESCSHFNQQNSSAVFFKNGCMVIWSMNKQNRNKFFHFSKQFLHINSESTIDHYDFEELQVENISNKSYVNNSVIYLTSSNYRTTDKIAISFGLLSAVRLNNLEKKIEKKLFYENDQIENLKKKMKSSNLDHLSKQLFTSKITLHNLRYELNIDQDILDVPEALWELEYQKKLFLNILHIFDIKQRVDLLNHRLSWTLDYLNSFLDYVNQKHSSRLERIIIVIVGLELVLGIMQMGNTIGL”, the “soluble on expression in E. coli” value is on record as “not soluble”.

Take “MVQQKIANLLQGDFRYQIQYNWVSLENISPNIQLAVISSEDQRFLEHLGFDFEAIQRAIRYNEKSNKGIRGASTISQQTAKNLMLWHGQNWLRKGLEVPATMLLELTWSKKRILEVYLNIAEFGNGIFGVEAASRYYFKKSAKNLSQNEAALLAAVLPNPIIYKVNKPSLLVRKKQTWILRQMGNLGTEYLSHL”: the “soluble on expression in E. coli” value was “not soluble”.

“MPQIYFSAAERRPKFVMKTGLSATEKNEVIKAAYRQIFERDITRAYSLSISDLESKVKNGDISMKEFVRRLAKSPLYQKQFYQPFINSRVIELAFRHILGRGPSSREEVQKYFSIISNGGLPALVDALVDSAEYSDYFGEETVPYLRGLEHHHHHH”: the “soluble on expression in E. coli” value is recorded as “soluble”.

Turning to “MASMTGGQQMGRDLQVTLYGTIKAGVEVSRVKDAGTYKAQGGKSKTATQIADFGSKIGFKGQEDLGNGMKAIWQLEQKASIAGTNSGWGNRQSFIGLKGGFGTVRAGNLNTVLKDSGDNVNAWESGSNTEDVLGLGTIGRVESREISVRYDSPVFAGFSGSVQYVPRDNANDVDKYKHTKSSRESYHAGLKYENAGFFGQYAGSFAKYADLNTDAERVAVNTANAHPVKDYQVHRVVAGYDANDLYVSVAGQYEAAKNNEVGSIKGKKHEQTQVAATAAYRFGNVTPRVSYAHGFKAKVNGVKDANYQYDQVIVGADYDFSKRTSALVSAGWLKQGKGAGKVEQTASMVGLRHKF”, the “soluble on expression in E. coli” value is on record as “soluble”.

Take “MNRAEKREFVTWLNEAFRKSGSVIVAHYSGLTVSQMNDLRSKMSEAGGAIKVAKNRLAKIALQGTESESIVDLFSGQTLIAYSEDPITAPKVAVDFAKTNDKFVILGGSMGATSLSVDAVKSLASLPSLNELRAKLVGMISTPATRIAQVVNAPAGQVVRVIGAYAQEGKAA”: the “soluble on expression in E. coli” value is on record as “not soluble”.

With “MKIITCYKCVPDEQDIAINNADGTLDFSKADSKISQYDLNAIEAACQLKQQLGDAQVVAMSVGGKALTNAKGRKDVLSRGPDELIVVIDDQFEQALPQHTATALAAAAQKSGFDLLICGDGSSDLYAQQVGLLVGEALNIPAINGVSKILSLTDSTLTVERELEDEVETLSIPLPAVIAVSTDINTPQIPSMKAILGAAKKPVQVWSPADIGLNSVPAYSAQQVAAPKQRERQRVVIEGDGEEQIAAFVENLRKII”, the “soluble on expression in E. coli” value is “not soluble”.

For the sequence “GSNGMSQLPAPVSVESSWRYIDTQGQIHGPFTTQMMSQWYIGGYFASTLQISRLGSTPETLGINDIFITLGELMTKLEKYDTDPFTTFDKLHVQTTSSDS”, the “soluble on expression in E. coli” value was “soluble”.

On to “MSLHTAQKTRKGEHKWAAVVGLEIHAQISSNSKLFSGSQVRFSAPPNSLVSFFDASLPGTLPVLNRRCVEAAVMTGLALNCHINKKSLFDRKHYFYADLPAGYQITQQRLPIAVNGSLIYGVCAGKKQSQVIPKTVRIKQIQLEQDSGKSLHDNLRSQTLIDLNRAGVGLLEVVLEPDMSCGEEAATAVRELQLILQALGTSQANMAEGQLRVDANISVHHPGEPLGVRTEVKNLNSIRFLAKAIDYEIQRQINELENGGEILNETRSFHHKLGCTMSMRDKEGKQDYRFMPEPNLPPLVLYDATSLPAGADPQQVINIDQIRETLPELPSVTREKLVQQYGMLLEHSFTLLNEVGLLEFFQNVIKETRAEPKKVTSWVLNTFLGYLKQQNLAVSESPVTPSALAELLDLLDSRTISSSAAKQVFEELWKREGKTPGQIVSEKQLELMQDQGALEQLCHSVMEAHPQVVMDVKNRNPRAINKLIGLVRKATQSRADPVMIKEILEKKLSLEGHHHHHH”, for which the “soluble on expression in E. coli” value is “soluble”.

For the sequence “MVSIRRSFEAYVDDMNIITVLIPAEQKEIMTPPFRLETEITDFPLAVREEYSLEAKYKYVCVSDHPVTFGKIHCVRASSGHKTDLQIGAVIRTAAFDDEFYYDGELGAVYTADHTVFKVWAPAATSAAVKLSHPNKSGRTFQMTRLEKGVYAVTVTGDLHGYEYLFCICNNSEWMETVDQYAKAVTVNGEKGVVLRPDQMKWTAPLKPFSHPVDAVIYETHLRDFSIHENSGMINKGKYLALTETDTQTANGSSSGLAYVKELGVTHVELLPVNDFAGVDEEKPLDAYNWGYNPLHFFAPEGSYASNPHDPQTRKTELKQMINTLHQHGLRVILDVVFNHVYKRENSPFEKTVPGYFFRHDECGKPSNGTGVGNDIASERRMARKFIADCVVYWLEEYNVDGFRFDLLGILDIDTVLYMKEKATKAKPGILLFGEGWDLATPLPHEQKAALANAPRMPGIGFFNDMFRDAVKGNTFHLKATGFALGNGESAQAVMHGIAGSSGWKALAPIVPEPSQSINYVESHDNHTFWDKMSFALPQENDSRKRSRQRLAVAIILLAQGVPFIHSGQEFFRTKQGVENSYQSSDSINQLDWDRRETFKEDVHYIRRLISLRKAHPAFRLRSAADIQRHLECLTLKEHLIAYRLYDLDEVDEWKDIIVIHHASPDSVEWRLPNDIPYRLLCDPSGFQEDPTEIKKTVAVNGIGTVILYLASDLKSFA”, the “soluble on expression in E. coli” value was “soluble”.
